Assay results: the supplement of paper PMC11865577

Assays:
Assay in all cases: pull-down binding Z-score (relative to library population); higher = stronger binding
[1] = tested on: TO-3-N3 (biotin conjugate); details: RNA library: Library-2
Outline: (§1)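 Streptavidin beads bearing 100 pmol of a biotin-conjugated small molecule were incubated for 60 min at 25 °C with 1 μg of heat-folded, Cy5- or Cy3-end-labelled RNA library in phosphate/NaCl/KCl buffer. Hot SDS eluted the RNA that stayed bound after three washes, and this RNA was hybridised for 20 h at 55.5 °C to a DNA barcode microarray. Binding was expressed as a Z-score against the library mean and standard deviation, after subtraction of a beads-only signal and trimmed averaging of barcoded replicate probes.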

[2] = tested on: TO-N3-2 (biotin conjugate); details: RNA library: Library-2
Outline: as §1

TO-N3 (biotin conjugate) = details: RNA library: Library-2
Outline: as §1

[3] = tested on: G-clamp-N3 (biotin conjugate); details: RNA library: Library-1 (pre-miRNA loops + repeats)
Outline: as §1

[4] = tested on: TO-3-N3-2 (biotin conjugate); details: RNA library: Library-2
Outline: as §1

Row | Sequence | pull-down binding Z-score [1] | pull-down binding Z-score [2] | pull-down binding Z-score (TO-N3 (biotin conjugate)) | pull-down binding Z-score [3] | pull-down binding Z-score [4]
1 | GAGGUCUUCCCAUGCUAAGAAGUCCUC [hsa-mir-2116] | 1.51 | -0.154 | 1.19 | -0.641 | 0.115
2 | UGCAGUAUCCGCUGUUGCUGCU [hsa-mir-6132] | -0.329 | 0.672 | -0.105 | -1.39 | -0.341
3 | CGUAGGCGUUAUGAUUUCUGACCUAUG [hsa-mir-379] | -0.513 | 0.473 | 0.0365 | -0.994 | -0.261
4 | UGUCGUAGAAAGUAAUGGCA [hsa-mir-548l] | 0.0469 | -0.387 | -0.189 | 0.662 | -0.0955
5 | UUUGUAUUGUGGUUCAGUACCAUGCAAA [hsa-mir-6507] | -0.367 | -0.933 | -0.633 | -0.552 | -0.36
6 | AGUCCUGUAAUUAGAUCUCAGGACU [hsa-mir-625] | -0.745 | -0.88 | -0.817 | -0.0681 | -0.739
7 | GUUUCUGUUGUCUGAAAGGAAAGAAAG [hsa-mir-520e] | -0.489 | 0.25 | -0.486 | -1.01 | -0.346
8 | CACACACAAUCACCAUGUG [hsa-mir-3118-1] | -0.577 | -1.07 | -0.942 | -0.57 | -0.386
9 | GCUUCUGCGUUAUCUGGAAGG [hsa-mir-4706] | -0.466 | 0.26 | -0.25 | -0.078 | -0.131
10 | UGCCUUGUAGCAUUCAGGUCAAGCA [hsa-mir-103a-2] | -0.594 | 0.0485 | -0.524 | 0.0735 | -0.378
11 | UUUUGCUUGUGUCUCUCCGCUCUGAGCAAUC [hsa-mir-96] | 0.441 | 0.411 | 0.528 | -0.253 | -0.0864
12 | CUGAGAGGUUUACAUUUCUC [hsa-mir-128-1] | -0.664 | -0.0343 | -0.648 | -1.07 | -0.672
13 | CAGACUGUCUUCCCAAAUAGCCUG [hsa-mir-4772] | 0.00537 | -0.223 | -0.0312 | -1.42 | -0.219
14 | AGAAAAUUUUUCUCCAAAGUUUUCU [hsa-mir-4659b] | -0.634 | -1.66 | -1.06 | -0.123 | -0.443
15 | GACUUGAGAUUAUAGUC [hsa-mir-3685] | 0.268 | -0.546 | -0.0763 | -0.369 | -0.13
16 | CCCAGCUUUGUGACUGUAAGUGUUGGA [hsa-mir-184] | 0.669 | 0.734 | 0.723 | 0.351 | 0.088
17 | GGUUGGCCGCUGACCCCCGCGGGGCCCCCGGCGGCC [hsa-mir-3195] | -0.103 | 0.847 | 0.0623 | 0.0226 | -0.293
18 | UCUGGGGAGAGAGUCCUCUUUUCAGC [hsa-mir-8082] | 0.432 | 0.614 | 0.571 | -0.804 | -0.234
19 | CCGGGUGCCCACAAGACUGUG [hsa-mir-3138] | 0.49 | 2.06 | 1.01 | -0.253 | 0.469
20 | AGGCCUGAGUCUCUCUGCUGCAGAUGGGCUC [hsa-mir-422a] | -0.112 | 1.29 | 0.668 | -0.38 | -0.0262

Row | Sequence | pull-down binding Z-score [1] | pull-down binding Z-score [2] | pull-down binding Z-score (TO-N3 (biotin conjugate)) | pull-down binding Z-score [3] | pull-down binding Z-score [4]
21 | CUAACAGGCCCCUGUCACCAUUAG [hsa-mir-5579] | -0.463 | 0.236 | -0.073 | -0.762 | -0.144
22 | GCUAGUGCUGGCUCAAUGCAAUGC [hsa-mir-502] | -0.322 | 0.637 | -0.0527 | -0.151 | -0.0546
23 | CCUCUCGGGAACUACAAGUCCCAGGGGG [hsa-mir-2861] | -0.694 | -0.455 | -0.794 | 0.879 | -0.409
24 | UGGCUUGCACCGUGACUCCCUCUCACCAAGCAAGUGUC [hsa-mir-4440] | -0.387 | 0.607 | 0.0846 | -0.837 | 0.0231
25 | CCUCAAUCACUUGCCAGAGAGAUUGG [hsa-mir-1200] | 0.0255 | -0.136 | -0.196 | -1.09 | -0.188
26 | AUAGUUGAGGAGGACACCCAAGGAGAUCACUAU [hsa-let-7e] | 0.341 | 1.26 | 0.871 | -0.413 | 0.863
27 | AUUGCAUGUUCUGGUGGUACCCAUGCAAU [hsa-mir-33a] | 0.18 | 0.382 | 0.127 | -0.215 | 0.0325
28 | CAAGCACACAGGGCCUGGGACUAGCAUG [hsa-mir-4728] | 0.506 | 1.52 | 0.993 | -0.152 | 0.256
29 | UGAGCAUUUUUACUGAAUUGCCA [hsa-mir-6715a] | -0.582 | -0.686 | -0.738 | 0.49 | -0.268
30 | UUUUCUGGGA [hsa-mir-4456] | -0.426 | -0.251 | -0.484 | -0.606 | -0.103
31 | ACUCCUAGGUCACGGAAGU [hsa-mir-6838] | -0.255 | -0.0545 | -0.23 | -0.404 | -0.33
32 | CCUUCUCCUCUUUGCAGUGAUAAAGGAGG [hsa-mir-4460] | -0.304 | -0.549 | -0.61 | -0.412 | -0.351
33 | GGAUGAAAGUCAAAGAAUCC [hsa-mir-1262] | 1.25 | 0.0488 | 1.17 | -0.564 | 0.0666
34 | GAGUUGCUGAGUGGGUUGAUCUC [hsa-mir-6764] | 0.17 | 0.652 | 0.122 | 0.494 | 0.061
35 | GAUUUUUUAGAUUCUAAAGAAAC [hsa-mir-1255a] | -0.837 | -1.27 | -1.02 | -1.12 | -0.365
36 | AUGGGGCAGCUGGGAUGGUCCAAAAGGGUGGCCUCA [hsa-mir-1226] | 0.729 | 1.17 | 1.05 | 1.14 | 0.406
37 | CACCAAAGGGUUAAGGGUUUGCUCUGGAG [hsa-mir-4653] | -0.018 | 0.14 | 0.124 | -0.264 | 0.0957
38 | ACUUUCACCAGAGAGCAGAAAGU [hsa-mir-371b] | -0.485 | -0.356 | -0.636 | 0.341 | -0.564
39 | ACGUGACCUCCUGGGCCUG [hsa-mir-6770-1_6770-3_6770-2] | 0.505 | 1 | 0.829 | -0.342 | 0.131
40 | GCUGGGGACUGGAGAA [hsa-mir-4489] | 2.13 | 1.64 | 2.4 | 2.08 | 1.32

Row | Sequence | pull-down binding Z-score [1] | pull-down binding Z-score [2] | pull-down binding Z-score (TO-N3 (biotin conjugate)) | pull-down binding Z-score [3] | pull-down binding Z-score [4]
41 | CGAGGUGGGCUAGGCUCGGGCCCGUGGCG [hsa-mir-3656] | 0.715 | 2.8 | 1.7 | 2.89 | 0.185
42 | CUCUAGACUCUAUUAUAGUUUCCUGAG [hsa-mir-558] | -0.335 | -0.545 | -0.751 | -1.03 | -0.582
43 | GGAGCAGACAGACCCAACCUCAUGCUCC [hsa-mir-6763] | 0.0429 | 0.247 | 0.219 | -0.993 | -0.471
44 | GCAGAGAAGACAGUGAGCUUGCCAGUUCUGGUUUCCAACACUUCCUUUCCUGCG [hsa-mir-3911] | 0.56 | 1.3 | 0.975 | -1.12 | 0.236
45 | CACACUGGUGAGGUAACAGGAUCCGGUG [hsa-mir-182] | 0.159 | 0.691 | 0.38 | 0.926 | 0.0141
46 | UCUUAGCACGGGGUCUAAGG [hsa-mir-4747] | -0.188 | -0.257 | -0.33 | 0.0593 | -0.0231
47 | UAAUGAUUGGAGUCAUUUUCAGAGCAUUA [hsa-mir-3202-1] | -0.304 | -0.537 | -0.407 | 1.44 | -0.262
48 | UGACUCAGAUCU [hsa-mir-759] | -0.321 | -0.155 | -0.271 | -1.38 | -0.249
49 | GGGUCCUAAGGUGUGUCCUC [hsa-mir-1976] | -0.224 | 0.812 | 0.25 | -0.979 | -0.0978
50 | CGGACACCCGGCCUCCACUUUCUGUGGCAGGUACCUCCUCCA [hsa-mir-4505] | 0.675 | 1.47 | 1.05 | 0.149 | 0.209
51 | UCAGCUGUGGAAAGUAAGAAAGCUGG [hsa-mir-30c-2] | 0.97 | 1.31 | 1.28 | -0.0598 | 1.22
52 | GGGGUCUUGCUCUAUU [hsa-mir-6088] | 0.523 | 0.111 | 0.572 | 0.123 | 0.136
53 | GGAGGCAUGAAUGAGCCAUCUUUCCAAUGCCUUUC [hsa-mir-4743] | -0.573 | 0.952 | -0.118 | -1.03 | -0.332
54 | UGGCUGCUUGGGUCAAGUCAGCAGCCA [hsa-mir-449b] | -0.201 | -0.648 | -0.272 | 1.35 | -0.474
55 | UUCUCUUUAUUUAUGAUGAA [hsa-mir-494] | -0.968 | -1.8 | -1.56 | -1.25 | -0.639
56 | CACUGCAGUUACCCUCCCCUCGGCGUUACUGAGCACUG [hsa-mir-637] | 0.22 | 0.948 | 0.603 | -0.893 | 0.224
57 | CGUGCUCAGCUUGGCACCCAAGUUCUGC [hsa-mir-7704] | -0.129 | 1.39 | 0.485 | -0.0193 | -0.12
58 | GCAUGGGGCUAGGAGGCCCCGCGC [hsa-mir-6825] | 0.451 | 0.142 | 0.391 | -0.292 | 0.00553
